B1: RAC-beta serine/threonine-protein kinase (Homo sapiens), P31751 (parent)
chain: MNEVSVIKEGWLHKRGEYIKTWRPRYFLLKSDGSFIGYKERPEAPDQTLPPLNNFSVAECQLMKTERPRPNTFVIRCLQWTTVIERTFHVDSPDEREEWMRAIQMVANSLKQRAPGEDPMDYKCGSPSDSSTTEEMEVAVSKARAKVTMNDFDYLKLLGKGTFGKVILVREKATGRYYAMKILRKEVIIAKDEVAHTVTESRVLQNTRHPFLTALKYAFQTHDRLCFVMEYANGGELFFHLSRERVFTEERARFYGAEIVSALEYLHSRDVVYRDIKLENLMLDKDGHIKITDFGLCKEGISDGATMKTFCGTPEYLAPEVLEDNDYGRAVDWWGLGVVMYEMMCGRLPFYNQDHERLFELILMEEIRFPRTLSPEAKSLLAGLLKKDPKQRLGGGPSDAKEVMEHRFFLSINWQDVVQKKLLPPFKPQVTSEVDTRYFDDEFTAQSITITPPDRYDSLGLLELDQRTHFPQFSYSASIRE

Variants of: B1
Conditions: with ttc3_human TTC3, P53804
Chain of ttc3_human TTC3, P53804 (P53804 whole entry): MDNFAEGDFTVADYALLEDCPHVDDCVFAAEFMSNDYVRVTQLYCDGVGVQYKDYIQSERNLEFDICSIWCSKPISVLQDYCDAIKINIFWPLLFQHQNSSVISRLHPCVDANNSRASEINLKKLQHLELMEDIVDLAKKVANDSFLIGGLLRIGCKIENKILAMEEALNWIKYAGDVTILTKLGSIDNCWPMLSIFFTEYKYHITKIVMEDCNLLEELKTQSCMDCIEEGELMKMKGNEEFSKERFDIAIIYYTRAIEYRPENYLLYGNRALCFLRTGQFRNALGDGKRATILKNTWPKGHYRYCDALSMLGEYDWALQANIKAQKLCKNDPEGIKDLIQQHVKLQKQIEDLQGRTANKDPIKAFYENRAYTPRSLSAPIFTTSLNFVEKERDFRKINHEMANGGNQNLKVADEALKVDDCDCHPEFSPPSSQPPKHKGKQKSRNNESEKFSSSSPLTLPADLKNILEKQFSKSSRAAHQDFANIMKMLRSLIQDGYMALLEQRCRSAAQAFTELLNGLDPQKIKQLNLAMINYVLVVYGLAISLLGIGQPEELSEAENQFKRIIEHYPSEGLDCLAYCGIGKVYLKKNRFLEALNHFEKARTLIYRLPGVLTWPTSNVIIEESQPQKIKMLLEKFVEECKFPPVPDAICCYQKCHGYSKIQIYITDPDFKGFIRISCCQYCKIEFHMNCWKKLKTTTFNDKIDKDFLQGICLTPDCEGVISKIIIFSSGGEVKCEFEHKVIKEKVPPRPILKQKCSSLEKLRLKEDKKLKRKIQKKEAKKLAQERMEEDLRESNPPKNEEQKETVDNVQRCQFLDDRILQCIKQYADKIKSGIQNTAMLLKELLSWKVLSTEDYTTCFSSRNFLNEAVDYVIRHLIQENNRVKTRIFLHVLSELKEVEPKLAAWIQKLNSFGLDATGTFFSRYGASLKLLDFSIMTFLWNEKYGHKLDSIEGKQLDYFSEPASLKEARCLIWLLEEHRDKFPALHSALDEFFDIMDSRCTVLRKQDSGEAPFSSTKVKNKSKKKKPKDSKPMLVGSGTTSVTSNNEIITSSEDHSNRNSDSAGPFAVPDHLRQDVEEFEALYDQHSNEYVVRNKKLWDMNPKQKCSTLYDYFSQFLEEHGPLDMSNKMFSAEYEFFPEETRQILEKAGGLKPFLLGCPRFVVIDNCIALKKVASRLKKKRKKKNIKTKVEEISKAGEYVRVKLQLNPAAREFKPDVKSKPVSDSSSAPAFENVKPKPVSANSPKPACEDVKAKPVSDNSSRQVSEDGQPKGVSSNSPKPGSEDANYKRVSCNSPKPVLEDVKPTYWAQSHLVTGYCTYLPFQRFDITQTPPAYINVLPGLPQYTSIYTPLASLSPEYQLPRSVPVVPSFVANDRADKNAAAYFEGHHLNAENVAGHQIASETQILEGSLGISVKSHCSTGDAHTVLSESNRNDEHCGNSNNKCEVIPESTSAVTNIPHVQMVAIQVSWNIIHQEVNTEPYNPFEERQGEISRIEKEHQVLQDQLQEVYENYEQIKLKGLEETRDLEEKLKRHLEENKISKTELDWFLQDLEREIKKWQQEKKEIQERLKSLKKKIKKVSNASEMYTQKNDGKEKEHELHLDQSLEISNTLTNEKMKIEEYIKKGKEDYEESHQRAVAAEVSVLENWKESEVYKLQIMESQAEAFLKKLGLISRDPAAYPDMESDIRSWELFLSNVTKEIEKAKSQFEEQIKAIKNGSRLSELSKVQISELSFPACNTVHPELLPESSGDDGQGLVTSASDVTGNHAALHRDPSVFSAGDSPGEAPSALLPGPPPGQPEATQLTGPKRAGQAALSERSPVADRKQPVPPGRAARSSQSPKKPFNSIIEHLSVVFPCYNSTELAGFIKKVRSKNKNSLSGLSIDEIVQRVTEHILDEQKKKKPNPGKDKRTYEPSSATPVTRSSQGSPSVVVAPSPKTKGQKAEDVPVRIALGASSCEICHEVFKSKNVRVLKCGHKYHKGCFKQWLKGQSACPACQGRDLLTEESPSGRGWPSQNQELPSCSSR

effect of a mutation on the interaction	Variant
disrupting interaction strength	MNEVSVIKEGWLHKRGEYIKTWRPRYFLLKSDGSFIGYKERPEAPDQTLPPLNNFSVAECQLMKTERPRPNTFVIRCLQWTTVIERTFHVDSPDEREEWMRAIQMVANSLKQRAPGEDPMDYKCGSPSDSSTTEEMEVAVSKARAKVTMNDFDYLKLLGKGTFGKVILVREKATGRYYAMKILRKEVIIAKDEVAHTVTESRVLQNTRHPFLTALKYAFQTHDRLCFVMEYANGGELFFHLSRERVFTEERARFYGAEIVSALEYLHSRDVVYRDIKLENLMLDKDGHIKITDFGLCKEGISDGATMKAFCGTPEYLAPEVLEDNDYGRAVDWWGLGVVMYEMMCGRLPFYNQDHERLFELILMEEIRFPRTLSPEAKSLLAGLLKKDPKQRLGGGPSDAKEVMEHRFFLSINWQDVVQKKLLPPFKPQVTSEVDTRYFDDEFTAQSITITPPDRYDSLGLLELDQRTHFPQFAYSASIRE [T309A;S474A]

Source: IntAct's records for PubMed 20059950
